Measured values published in US11278600B2, “Human alpha-galactosidase variants” (Codexis, Inc., priority 2014, dated 2022).
Residue numbers refer to the chain shown, from its start.

B1: 42 (protein)
chain: LDNGLARTPTMGWLHWERFMCNLDCQEEPDSCISEKLFMEMAELMVSEGWKDAGYEYLCIDDCWMAPQRDSEGRLQADPQRFPHGIRQLANYVHSKGLKLGIYADVGNKTCAGFPGSFGYYDIDAQTFADWGVDLLKFDGCYCDSLENLADGYKHMSLALNRTGRSIVYSCEWPLYMWPFQKPNYTEIRQYCNHWRNFADIDDSWKSIKSILDWTSFNQERIVDVAGPGGWNDPDMLVIGNFGLSWNQQVTQMALWAIMAAPLFMSNDLRHISPQAKALLQDKDVIAINQDPLGKQGYQLRQGDNFEVWERPLSGLAWAVAMINRQEIGGPRSYTIAVASLGKGVACNPACFITQLLPVKRKLGFYNWTSRLRSHINPTGTVLLQLENTMQMSKDLLL
modifications: Synthetic Polypeptide sequence of Variant No. 42 of mature Human GLA
B2: 52 (protein)
chain: B1 chain with F217D, N367E
modifications: Synthetic Polypeptide sequence of Variant No. 52 of mature Human GLA
B3: 53 (protein)
chain: B1 chain with F217R, N367E
modifications: Synthetic Polypeptide sequence of Variant No. 53 of mature Human GLA
B4: 43 (protein)
chain: B1 chain with N367T
modifications: Synthetic Polypeptide sequence of Variant No. 43 of mature Human GLA
B5: 54 (protein)
chain: B1 chain with F352I, N367E
modifications: Synthetic Polypeptide sequence of Variant No. 54 of mature Human GLA
B6: 46 (protein)
chain: B1 chain with N367E, E387R
modifications: Synthetic Polypeptide sequence of Variant No. 46 of mature Human GLA
B7: 56 (protein)
chain: B1 chain with F365I, N367E
modifications: Synthetic Polypeptide sequence of Variant No. 56 of mature Human GLA
B8: 55 (protein)
chain: B1 chain with F352V, F365I, N367E
modifications: Synthetic Polypeptide sequence of Variant No. 55 of mature Human GLA
B9: 49 (protein)
chain: B1 chain with F180R, N367E
modifications: Synthetic Polypeptide sequence of Variant No. 49 of mature Human GLA
B10: 44 (protein)
chain: B1 chain with N367E, E387K
modifications: Synthetic Polypeptide sequence of Variant No. 44 of mature Human GLA
B11: 50 (protein)
chain: B1 chain with F180S, N367E
modifications: Synthetic Polypeptide sequence of Variant No. 50 of mature Human GLA
B12: 45 (protein)
chain: B1 chain with N367E, E387Q
modifications: Synthetic Polypeptide sequence of Variant No. 45 of mature Human GLA
B13: 51 (protein)
chain: B1 chain with F198S, N367E
modifications: Synthetic Polypeptide sequence of Variant No. 51 of mature Human GLA
B14: 48 (protein)
chain: B1 chain with E40D, N367E
modifications: Synthetic Polypeptide sequence of Variant No. 48 of mature Human GLA
B15: 47 (protein)
chain: B1 chain with N367E, E387T
modifications: Synthetic Polypeptide sequence of Variant No. 47 of mature Human GLA

Experiment: HTP-analysis of yeast culture supernatants, no challenge (MUGal hydrolysis)
Type: biochemical
Details: activity of the variant/activity of WT GLA (SEQ ID NO: 5), yeast supernatant
In short: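 Activity read as 4-methylumbelliferyl α-D-galactopyranoside hydrolysis: fluorescence (355/448 nm) after sodium carbonate stop, following 30-180 min at 37° C with 2 mM MUGal stock at pH 4.6–4.8. Enzyme source is unchallenged culture supernatant of INVSc1 yeast expressing GLA variants, grown 66-84 h at 30° C.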

Row | Molecule | Relative Activity of GLA Variants After No Challenge (NC)
1 | B1 | +++ (+++ = >2.5 relative activity over WT GLA (SEQ ID NO: 5))
2 | B2 | ++ (++ = >1.5 to 2.5 relative activity over WT GLA (SEQ ID NO: 5))
3 | B3 | + (+ = 0.5 to 1.5 relative activity over WT GLA (SEQ ID NO: 5))
4 | B4 | + (+ = 0.5 to 1.5 relative activity over WT GLA (SEQ ID NO: 5))
5 | B5 | + (+ = 0.5 to 1.5 relative activity over WT GLA (SEQ ID NO: 5))
6 | B6 | + (+ = 0.5 to 1.5 relative activity over WT GLA (SEQ ID NO: 5))
7 | B7 | ++ (++ = >1.5 to 2.5 relative activity over WT GLA (SEQ ID NO: 5))
8 | B8 | ++ (++ = >1.5 to 2.5 relative activity over WT GLA (SEQ ID NO: 5))
9 | B9 | + (+ = 0.5 to 1.5 relative activity over WT GLA (SEQ ID NO: 5))
10 | B10 | + (+ = 0.5 to 1.5 relative activity over WT GLA (SEQ ID NO: 5))
11 | B11 | ++ (++ = >1.5 to 2.5 relative activity over WT GLA (SEQ ID NO: 5))
12 | B12 | ++ (++ = >1.5 to 2.5 relative activity over WT GLA (SEQ ID NO: 5))
13 | B13 | ++ (++ = >1.5 to 2.5 relative activity over WT GLA (SEQ ID NO: 5))
14 | B14 | + (+ = 0.5 to 1.5 relative activity over WT GLA (SEQ ID NO: 5))
15 | B15 | + (+ = 0.5 to 1.5 relative activity over WT GLA (SEQ ID NO: 5))

Experiment: HTP-analysis of supernatants pretreated with acid (MUGal hydrolysis)
Type: biochemical
Details: challenge at pH 4.2; activity of the variant/activity of WT GLA (SEQ ID NO: 5); yeast supernatant
In short: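 MUGal hydrolysis was tracked by fluorescence (Ex 355 nm, Em 448 nm) after a 30-180 min reaction at 37° C. in pH 4.8 McIlvaine/citrate buffer, stopped with 1 M sodium carbonate. Beforehand, yeast (INVSc1) culture supernatants carrying GLA variants were held 1-3 h at 37° C. in acidic McIlvaine buffer, pH 3.3-4.3.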

Row | Molecule | Relative Activity of GLA Variants After Challenge at pH 4.2
16 | B1 | +++ (+++ = >2.5 relative activity over WT GLA (SEQ ID NO: 5))
17 | B2 | + (+ = 0.5 to 1.5 relative activity over WT GLA (SEQ ID NO: 5))
18 | B3 | ++ (++ = >1.5 to 2.5 relative activity over WT GLA (SEQ ID NO: 5))
19 | B4 | + (+ = 0.5 to 1.5 relative activity over WT GLA (SEQ ID NO: 5))
20 | B5 | + (+ = 0.5 to 1.5 relative activity over WT GLA (SEQ ID NO: 5))
21 | B6 | +++ (+++ = >2.5 relative activity over WT GLA (SEQ ID NO: 5))
22 | B7 | ++ (++ = >1.5 to 2.5 relative activity over WT GLA (SEQ ID NO: 5))
23 | B8 | +++ (+++ = >2.5 relative activity over WT GLA (SEQ ID NO: 5))
24 | B9 | + (+ = 0.5 to 1.5 relative activity over WT GLA (SEQ ID NO: 5))
25 | B10 | ++ (++ = >1.5 to 2.5 relative activity over WT GLA (SEQ ID NO: 5))
26 | B11 | ++ (++ = >1.5 to 2.5 relative activity over WT GLA (SEQ ID NO: 5))
27 | B12 | ++ (++ = >1.5 to 2.5 relative activity over WT GLA (SEQ ID NO: 5))
28 | B13 | ++ (++ = >1.5 to 2.5 relative activity over WT GLA (SEQ ID NO: 5))
29 | B14 | + (+ = 0.5 to 1.5 relative activity over WT GLA (SEQ ID NO: 5))
30 | B15 | ++ (++ = >1.5 to 2.5 relative activity over WT GLA (SEQ ID NO: 5))

Experiment: HTP-analysis of supernatants pretreated with base (MUGal hydrolysis)
Type: biochemical
Details: challenge at pH 7.1; activity of the variant/activity of WT GLA (SEQ ID NO: 5); yeast supernatant
In short: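 Fluorescence of released 4-MU (Ex 355 nm, Em 448 nm) after carbonate quench reports MUGal hydrolysis by GLA variants secreted from INVSc1 yeast. Before the acidic (pH 4.3-4.8) 30-180 min reaction at 37° C, supernatants had been pre-incubated at pH 7.0-9.7 for 1-18 h at 37° C.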

Row | Molecule | Relative Activity of GLA Variants After Challenge at pH 7.1
31 | B1 | +++ (+++ = >2.5 relative activity over WT GLA (SEQ ID NO: 5))
32 | B2 | ++ (++ = >1.5 to 2.5 relative activity over WT GLA (SEQ ID NO: 5))
33 | B3 | ++ (++ = >1.5 to 2.5 relative activity over WT GLA (SEQ ID NO: 5))
34 | B4 | + (+ = 0.5 to 1.5 relative activity over WT GLA (SEQ ID NO: 5))
35 | B5 | + (+ = 0.5 to 1.5 relative activity over WT GLA (SEQ ID NO: 5))
36 | B6 | + (+ = 0.5 to 1.5 relative activity over WT GLA (SEQ ID NO: 5))
37 | B7 | ++ (++ = >1.5 to 2.5 relative activity over WT GLA (SEQ ID NO: 5))
38 | B8 | ++ (++ = >1.5 to 2.5 relative activity over WT GLA (SEQ ID NO: 5))
39 | B9 | + (+ = 0.5 to 1.5 relative activity over WT GLA (SEQ ID NO: 5))
40 | B10 | + (+ = 0.5 to 1.5 relative activity over WT GLA (SEQ ID NO: 5))
41 | B11 | ++ (++ = >1.5 to 2.5 relative activity over WT GLA (SEQ ID NO: 5))
42 | B12 | ++ (++ = >1.5 to 2.5 relative activity over WT GLA (SEQ ID NO: 5))
43 | B13 | + (+ = 0.5 to 1.5 relative activity over WT GLA (SEQ ID NO: 5))
44 | B14 | + (+ = 0.5 to 1.5 relative activity over WT GLA (SEQ ID NO: 5))
45 | B15 | + (+ = 0.5 to 1.5 relative activity over WT GLA (SEQ ID NO: 5))
